Target: CD20 on Raji cells (CD20+) or K562-CD20 cells (UniProt P11836)
Assay: cell-based or functional assay

| Substance | cytotoxicity on target cells (luciferase assay), MACS-sorted TCRαβ negative CD20 TAC-T cells | cytotoxicity on target cells (luciferase assay), MACS-sorted TCRαβ negative CD20 cTCR-T cells |
| --- | --- | --- |
| anti-CD20 TAC (anti-CD20 scFv (Leu-16)-(GGGGS)3-huUCHT1.Y177T-GGGGS-CD4) | 54.6% |  |
| anti-CD20 chimeric TCR (anti-CD20 scFv (Leu-16)-(GGGGS)3-CD3epsilon) |  | 49.2% |
